The chains are these.
B1: IgG1-F671 (antibody)
heavy: QVQLQESGPGLVKPSETLSLTCAVSGHSISHDHAWSWVRQPPGEGLEWIGFISYSGITNYNPSLQGRVTISRDNSKNTLYLQMNSLRAEDTAVYYCARSLARTTAMDYWGEGTLVTVSSASTKGPSVFPLAPSSKSTSGGTAALGCLVKDYFPEPVTVSWNSGALTSGVHTFPAVLQSSGLYSLSSVVTVPSSSLGTQTYICNVNHKPSNTKVDKKVEPKSCDKTHTCPPCPAPELLGGPSVFLFPPKPKDTLYISRTPEVTCVVVDVSHEDPEVKFNWYVDGVEVHLAKTKPREEQYNSTYRVVSVLTPLHQDWLNGKEYKCKVSNKALPAPIEKTISKAKGQPREPQVYTLPPSRDELTKNQVSLTCLVKGFYPSDIAVEWESNGQPENNYKTTPPVLDSDGSFFLYSKLTVDKSRWQQGNVFSCSVMHEALHYHYTQKSLSLSP
light: not shown
notes: EU numbering; copies: 2 + 2
B2: IgG1-F710 (antibody)
heavy: B1 heavy with P240D, L288E, T309Q, P310V, Q313A, M430I
light: not shown
notes: EU numbering; copies: 2 + 2
B3: IgG1-F673 (antibody)
heavy: B1 heavy with L288P
light: not shown
notes: EU numbering; copies: 2 + 2
B4: IgG1-F692 (antibody)
heavy: B1 heavy with L288N, K290Q
light: not shown
notes: EU numbering; copies: 2 + 2
B5: IgG1-F684 (antibody)
heavy: B1 heavy with L288N, K290F
light: not shown
notes: EU numbering; copies: 2 + 2
B6: IgG1-F693 (antibody)
heavy: B1 heavy with L288N, K290R
light: not shown
notes: EU numbering; copies: 2 + 2
B7: IgG1-F706 (antibody)
heavy: B1 heavy with L288E, T309Q, P310V, Q313A, M430I
light: not shown
notes: EU numbering; copies: 2 + 2
B8: IgG1-F680 (antibody)
heavy: B1 heavy with L288Y
light: not shown
notes: EU numbering; copies: 2 + 2
B9: IgG1-F719 (antibody)
heavy: B1 heavy with P240D, L288N, P310V, N327G
light: not shown
notes: EU numbering; copies: 2 + 2
B10: IgG1-F705 (antibody)
heavy: B1 heavy with L288E, M430I
light: not shown
notes: EU numbering; copies: 2 + 2
B11: IgG1-F729 (antibody)
heavy: B1 heavy with Y254M, L288N, T309A, P310V, Q313A
light: not shown
notes: EU numbering; copies: 2 + 2
B12: IgG1-F682 (antibody)
heavy: B1 heavy with L288N, K290D
light: not shown
notes: EU numbering; copies: 2 + 2
B13: IgG1-F699 (antibody)
heavy: B1 heavy with S241K, L288E, T309Q, P310V, Q313A
light: not shown
notes: EU numbering; copies: 2 + 2
B14: IgG1-F708 (antibody)
heavy: B1 heavy with L288E, T309Q, Q313A, M430I
light: not shown
notes: EU numbering; copies: 2 + 2
B15: IgG1-F675 (antibody)
heavy: B1 heavy with L288R
light: not shown
notes: EU numbering; copies: 2 + 2
B16: IgG1-F689 (antibody)
heavy: B1 heavy with L288N, K290M
light: not shown
notes: EU numbering; copies: 2 + 2
B17: IgG1-F697 (antibody)
heavy: B1 heavy with S241K, L288N, N327G
light: not shown
notes: EU numbering; copies: 2 + 2
B18: IgG1-F720 (antibody)
heavy: B1 heavy with L288N, T309Q, Q313A
light: not shown
notes: EU numbering; copies: 2 + 2
B19: IgG1-F724 (antibody)
heavy: B1 heavy with P240D, L288N, P310V, L330E
light: not shown
notes: EU numbering; copies: 2 + 2
B20: IgG1-F730 (antibody)
heavy: B1 heavy with Y254M, L288N, T309Q, P310V, Q313A
light: not shown
notes: EU numbering; copies: 2 + 2
B21: IgG1-F674 (antibody)
heavy: B1 heavy with L288Q
light: not shown
notes: EU numbering; copies: 2 + 2
B22: IgG1-F687 (antibody)
heavy: B1 heavy with L288N, K290I
light: not shown
notes: EU numbering; copies: 2 + 2
B23: IgG1-F721 (antibody)
heavy: B1 heavy with L288N, T309Q, Q313A, M430I
light: not shown
notes: EU numbering; copies: 2 + 2
B24: IgG1-F677 (antibody)
heavy: B1 heavy with L288T
light: not shown
notes: EU numbering; copies: 2 + 2
B25: IgG1-F690 (antibody)
heavy: B1 heavy with L288N, K290N
light: not shown
notes: EU numbering; copies: 2 + 2
B26: IgG1-F700 (antibody)
heavy: B1 heavy with L288N, L330E
light: not shown
notes: EU numbering; copies: 2 + 2
B27: IgG1-F698 (antibody)
heavy: B1 heavy with L288E, T309Q, P310V, Q313A
light: not shown
notes: EU numbering; copies: 2 + 2
B28: IgG1-F672 (antibody)
heavy: B1 heavy with L288M
light: not shown
notes: EU numbering; copies: 2 + 2
B29: IgG1-F714 (antibody)
heavy: B1 heavy with P240D, L288N, P310V, N327S
light: not shown
notes: EU numbering; copies: 2 + 2
B30: IgG1-F726 (antibody)
heavy: B1 heavy with L237K, P240K, S241K, L288N
light: not shown
notes: EU numbering; copies: 2 + 2
B31: IgG1-F717 (antibody)
heavy: B1 heavy with P240D, L288N, P310V, N327I
light: not shown
notes: EU numbering; copies: 2 + 2
B32: IgG1-F732 (antibody)
heavy: B1 heavy with Y254M, L288N, T309Q, P310V, Q313H
light: not shown
notes: EU numbering; copies: 2 + 2
B33: IgG1-F723 (antibody)
heavy: B1 heavy with P240D, L288N, P310V, L330D
light: not shown
notes: EU numbering; copies: 2 + 2
B34: IgG1-F712 (antibody)
heavy: B1 heavy with P240D, L288N, T309Q, P310V, Q313A
light: not shown
notes: EU numbering; copies: 2 + 2
B35: IgG1-F713 (antibody)
heavy: B1 heavy with P240D, L288E, T309Q, P310V, Q313A
light: not shown
notes: EU numbering; copies: 2 + 2
B36: IgG1-F678 (antibody)
heavy: B1 heavy with L288V
light: not shown
notes: EU numbering; copies: 2 + 2
B37: IgG1-F725 (antibody)
heavy: B1 heavy with L237K, G239R, S241K, L288N
light: not shown
notes: EU numbering; copies: 2 + 2
B38: IgG1-F716 (antibody)
heavy: B1 heavy with P240D, L288N, P310V, N327L
light: not shown
notes: EU numbering; copies: 2 + 2
B39: IgG1-F683 (antibody)
heavy: B1 heavy with L288N, K290E
light: not shown
notes: EU numbering; copies: 2 + 2
B40: IgG1-F709 (antibody)
heavy: B1 heavy with S241K, L288E, T309Q, P310V, Q313A, M430I
light: not shown
notes: EU numbering; copies: 2 + 2
B41: IgG1-F718 (antibody)
heavy: B1 heavy with P240D, L288N, Q297M, P310V
light: not shown
notes: EU numbering; copies: 2 + 2
B42: IgG1-F676 (antibody)
heavy: B1 heavy with L288S
light: not shown
notes: EU numbering; copies: 2 + 2
B43: IgG1-F685 (antibody)
heavy: B1 heavy with L288N, K290G
light: not shown
notes: EU numbering; copies: 2 + 2
B44: IgG1-F681 (antibody)
heavy: B1 heavy with L288N, K290A
light: not shown
notes: EU numbering; copies: 2 + 2
B45: IgG1-F686 (antibody)
heavy: B1 heavy with L288N, K290H
light: not shown
notes: EU numbering; copies: 2 + 2
B46: IgG1-F696 (antibody)
heavy: B1 heavy with L288N, K290Y
light: not shown
notes: EU numbering; copies: 2 + 2
B47: IgG1-F691 (antibody)
heavy: B1 heavy with L288N, K290P
light: not shown
notes: EU numbering; copies: 2 + 2
B48: IgG1-F694 (antibody)
heavy: B1 heavy with L288N, K290V
light: not shown
notes: EU numbering; copies: 2 + 2
B49: IgG1-F731 (antibody)
heavy: B1 heavy with Y254M, L288N, T309A, P310V, Q313H
light: not shown
notes: EU numbering; copies: 2 + 2
B50: IgG1-F707 (antibody)
heavy: B1 heavy with L288E, T309Q, Q313A
light: not shown
notes: EU numbering; copies: 2 + 2
B51: IgG1-F695 (antibody)
heavy: B1 heavy with L288N, K290W
light: not shown
notes: EU numbering; copies: 2 + 2
B52: IgG1-F715 (antibody)
heavy: B1 heavy with P240D, L288N, P310V, N327M
light: not shown
notes: EU numbering; copies: 2 + 2
B53: IgG1-F679 (antibody)
heavy: B1 heavy with L288W
light: not shown
notes: EU numbering; copies: 2 + 2
B54: IgG1-F688 (antibody)
heavy: B1 heavy with L288N, K290L
light: not shown
notes: EU numbering; copies: 2 + 2
B55: IgG1-F711 (antibody)
heavy: B1 heavy with S241K, L288N, T309Q, P310V, Q313A
light: not shown
notes: EU numbering; copies: 2 + 2

Changes are numbered by the printed parent chain.

The target of this test is T1, human FcRn (soluble human FcRn complexed with β2-microglobulin) (human, UniProt P61769 21-119, limits assumed).
T1 construct: also called hFcRn
T1 sequence (chain, as listed by the source limits assumed, chain 1 of 2): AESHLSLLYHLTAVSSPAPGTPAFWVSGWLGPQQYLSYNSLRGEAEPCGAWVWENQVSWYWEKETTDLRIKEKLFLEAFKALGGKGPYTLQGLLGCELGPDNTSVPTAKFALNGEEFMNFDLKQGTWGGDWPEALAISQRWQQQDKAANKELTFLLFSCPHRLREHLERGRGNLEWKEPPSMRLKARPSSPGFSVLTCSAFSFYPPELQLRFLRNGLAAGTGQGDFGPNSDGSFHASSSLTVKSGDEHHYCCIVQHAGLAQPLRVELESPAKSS
T1 sequence (P61769 21-119 limits assumed, chain 2 of 2): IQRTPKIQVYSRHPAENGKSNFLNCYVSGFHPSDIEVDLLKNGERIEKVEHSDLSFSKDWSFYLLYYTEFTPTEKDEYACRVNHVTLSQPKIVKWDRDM
Nature of the test: SPR, pH 7.0.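 Further: antibodies captured on a Protein L sensor chip with human FcRn injected as analyte, KD calculated from fitted association and dissociation rate constants.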 For orientation: Surface plasmon resonance follows binding to a sensor surface in real time, without labels.
Take B1: the affinity, expressed as Kd, was 22 nM.

For B2, the Kd stood at 15 nM.

B3: binding was put at a Kd of 23 nM.

Consider B4, for which the Kd amounted to 39 nM.

The molecule B5 came in with a dissociation constant Kd of 51 nM.

The molecule B6 registered a Kd of 36 nM.

In turn, B7 showed a Kd of 18 nM.

B8 returned a Kd of 15 nM.

As to B9, the Kd came to 74 nM.

With B10, the Kd was determined as 7.1 nM.

B11 displayed a Kd of 920 nM.

In turn, B12 yielded a Kd of 82 nM.

As for B13, the affinity, expressed as Kd, was 23 nM.

Molecule B14 yielded a Kd of 4.1 nM.

The molecule B15 displayed a Kd of 51 nM.

For B16, the affinity, expressed as Kd, was 41 nM.

Regarding B17, the equilibrium dissociation constant (Kd) worked out at 31 nM.

Molecule B18 showed a Kd of 24 nM.

B19 yielded a Kd of 250 nM.

Molecule B20 yielded a Kd of 600 nM.

B21 had a Kd of 32 nM.

As for B22, the affinity, expressed as Kd, was 49 nM.

B23 displayed a dissociation constant Kd of 15 nM.

In the case of B24, the Kd was 47 nM.

In the case of B25, the Kd is 100 nM.

B26 yielded a Kd of 52 nM.

The molecule B27 displayed a Kd of 22 nM.

Molecule B28 returned an equilibrium dissociation constant (Kd) of 24 nM.

In turn, B29 yielded a Kd of 230 nM.

Molecule B30 returned a Kd of 37 nM.

As to B31, binding was characterised by a dissociation constant (Kd) of 260 nM.

B32 registered a Kd of 680 nM.

Regarding B33, the Kd was found to be 280 nM.

The molecule B34 yielded a dissociation constant Kd of 60 nM.

For the molecule B35, the Kd stood at 20 nM.

Take B36: the Kd was 33 nM.

Molecule B37 gave a Kd of 42 nM.

In turn, B38 registered a Kd of 270 nM.

Turning to B39, the Kd is 50 nM.

As for B40, the Kd turned out to be 20 nM.

For B41, the dissociation constant (Kd) was found to be 280 nM.

For the molecule B42, the Kd worked out at 32 nM.

With B43, the Kd amounted to 53 nM.

With B44, the Kd stood at 49 nM.

For B45, the Kd came out at 46 nM.

B46 gave a Kd of 44 nM.

For B47, the Kd worked out at 320 nM.

Molecule B48 gave an equilibrium dissociation constant (Kd) of 47 nM.

As to B49, the Kd came out at 850 nM.

As to B50, binding was put at a Kd of 5.9 nM.

B51 returned a Kd of 40 nM.

B52: binding was put at a Kd of 230 nM.

B53 gave a Kd of 17 nM.

As for B54, the dissociation constant Kd was found to be 28 nM.

B55: the Kd was found to be 65 nM.

Usually Kd stands for the concentration at which binding is half-saturated. Read a high Kd as weaker binding.

Values taken from patent US20200199241A1 (Chugai, published 2020).
